Results: the supplement of paper PMC7877785
± gives the uncertainty stated by the source.

Test: self-splicing fitness, log relative to wild type (ln ratio); higher = more splicing; Tetrahymena group I intron in knt gene, E. coli kanamycin selection, DiMSum; sequences stand for … in CUCUCU…GGAGGGAAAAGUUAUCAGGCAUGCACCUGGUAGCUAGUCUUUAAACCAAUAGAUUGCAUCGGUUUAAAAGGCAAGACCGUCAAAUUGCGGGAAAGGGGUCAACAGCCGUUCAGUACCAAGUCUCAGGGGAAACUUUGAGAUGGCCUUGCAAAGGGUAUGGUAAUAAGCUGACGGACAUGGUCCUAACCACGCAGCCAAGUCCUAAGUCAACAGAUCUUCUGUUGAUAUGGAUGCAGUUCACAGACUAAAUGUCGGUCGGGGAAGAUGUAUUCUUCUCAUAAGAUAUAGUCGGACCUCUCCUUAAUGGGAGCUAGCGGAUGAAGUGAUGCAACACUGGAGCCGCUGGGAACUAAUUUGUAUGCGAAAGUAUAUUGAUUAGUUUUGGAGUACUCGUGGUCG
In short: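 Fitness was computed with DiMSum as the error-weighted combination of replicate fold changes, kanamycin versus none, each normalised to wild type. The library randomised all eight intron nucleotides of the P1ex region, with the intron placed in the knt kanamycin-resistance gene on pET-22b(+) in E. coli BL21(DE3). Six replicate transformations were grown overnight at 37°C or 30°C on LB agar with or without 25 μg/mL kanamycin, plus 100 μg/mL carbenicillin, 50 μM IPTG and 0.2% rhamnose. Pooled colonies were amplicon-sequenced on an Illumina HiSeq 2500.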

Sequence | self-splicing fitness (ln) (30 °C) | self-splicing fitness (ln) (37 °C)
UCCUAGCAAUAUUACGCCGA | -0.215 ± 0.11 | 0.0045 ± 0.11
ACGAAGCAAUAUUACGAUUG | -2.46 ± 0.14 | -0.909 ± 0.15
CCCAAGCAAUAUUACGAUUG | -3.88 ± 0.2 | -2.78 ± 0.28
ACAAAGCAAUAUUACGGAGC | -3.17 ± 0.13 | -2.62 ± 0.15
GCAGAGCAAUAUUACGCAAU |  | -1.61 ± 0.28
UUGGAGCAAUAUUACGAGAU | -2.83 ± 0.29 | -2.36 ± 0.36
GAGGAGCAAUAUUACGCCUG | -2.07 ± 0.41 | -1.3 ± 0.44
UGAAAGCAAUAUUACGCCUC | -1.85 ± 0.28 | 
GCUUAGCAAUAUUACGAGUG | -0.38 ± 0.096 | -0.545 ± 0.11
CAAUAGCAAUAUUACGUCGU | -3.95 ± 0.23 | -2.49 ± 0.19
GACGAGCAAUAUUACGGUUU | -2.28 ± 0.11 | -1.87 ± 0.14
GGGAAGCAAUAUUACGCAAA | -1.9 ± 0.24 | -2 ± 0.17
GGGCAGCAAUAUUACGGCGU | -1.16 ± 0.12 | -0.571 ± 0.12
AACAAGCAAUAUUACGUCUC | -3.51 ± 0.2 | -1.89 ± 0.16
GCGAAGCAAUAUUACGUUUG | -2.87 ± 0.14 | -2.68 ± 0.23
GAAGAGCAAUAUUACGCCGG | -2.66 ± 0.18 | -2.5 ± 0.29
UGCCAGCAAUAUUACGGUGA | -0.97 ± 0.075 | 0.0352 ± 0.092
UGUCAGCAAUAUUACGGUGA | -0.413 ± 0.094 | -0.355 ± 0.12
CGACAGCAAUAUUACGAUAC | -3.71 ± 0.25 | -2.96 ± 0.27
CCCAAGCAAUAUUACGCUUA | -3.38 ± 0.22 | -2.78 ± 0.21
GCAUAGCAAUAUUACGGGAU | -1.41 ± 0.085 | -0.646 ± 0.11
AUCCAGCAAUAUUACGUGGU | -3.14 ± 0.12 | -2.9 ± 0.15
GGGCAGCAAUAUUACGAUGU | -3.92 ± 0.3 | -0.5 ± 0.18
UGUGAGCAAUAUUACGGUCA | -0.959 ± 0.056 | -0.333 ± 0.069

Sequence | self-splicing fitness (ln) (30 °C) | self-splicing fitness (ln) (37 °C)
UGACAGCAAUAUUACGAGCC | -3.37 ± 0.28 | -2.24 ± 0.38
AGGAAGCAAUAUUACGCUGC | -3.38 ± 0.43 | 
UUACAGCAAUAUUACGCGAU | -2.28 ± 0.18 | -1.75 ± 0.16
GCUAAGCAAUAUUACGGACG | -0.941 ± 0.058 | -0.51 ± 0.074
GUGAAGCAAUAUUACGUAGG | -2.29 ± 0.14 | -0.218 ± 0.15
AAAUAGCAAUAUUACGGCAA | -0.542 ± 0.071 | 0.146 ± 0.075
CUCCAGCAAUAUUACGUGAC | -3.38 ± 0.15 | -2.98 ± 0.3
AUUUAGCAAUAUUACGCACC | -1.01 ± 0.18 | -0.21 ± 0.2
AGGCAGCAAUAUUACGGCAG | -1.29 ± 0.1 | -0.578 ± 0.12
AAUGAGCAAUAUUACGUCUG | -2.92 ± 0.15 | -3 ± 0.21
GUACAGCAAUAUUACGUUGC | -3.96 ± 0.13 | -3.05 ± 0.14
CGACAGCAAUAUUACGGAAA | -1.98 ± 0.21 | -2.2 ± 0.18
ACACAGCAAUAUUACGUGGA | -2.25 ± 0.096 | -1.18 ± 0.066
GCAGAGCAAUAUUACGGCAU | -3.03 ± 0.17 | -0.473 ± 0.11
GUGGAGCAAUAUUACGCUUG | -1.21 ± 0.16 | -1.25 ± 0.21
AACCAGCAAUAUUACGUGGU | -3.19 ± 0.12 | -3.15 ± 0.17
UCUAAGCAAUAUUACGCGGG | -3.14 ± 0.2 | -1.41 ± 0.18
GAUCAGCAAUAUUACGACGU | 0.142 ± 0.076 | 0.682 ± 0.089
GCCAAGCAAUAUUACGACAC | -0.962 ± 0.06 | -0.0161 ± 0.08
CACCAGCAAUAUUACGAACA | -3.14 ± 0.17 | -0.953 ± 0.14
UGUUAGCAAUAUUACGCGAC | -3.75 ± 0.4 | -1.59 ± 0.5
ACGAAGCAAUAUUACGGAUC | -3.59 ± 0.12 | -1.47 ± 0.096
CCGCAGCAAUAUUACGAACA | -2.19 ± 0.27 | 
GGACAGCAAUAUUACGUCUC | -4.03 ± 0.18 | -2.57 ± 0.2
